No end group written: not given here.
Assays:
Müller cells [1] = conditions: 10 μM FITC-labeled GILZ-p, 6 and 12 h, confocal immunofluorescence
Protocol: Müller cells were cultured on 6-well plates and starved in serum-free DMEM F12 for 24 h. The cells were then treated with 10 μM fluorescein isothiocyanate (FITC)-labeled GILZ-p for 6 and 12 h, respectively. After treatment, the Müller cells were washed with PBS, fixed in 4% paraformaldehyde (Sigma-Aldrich Corp., St. Louis, MO, United States), and permeabilized in 0.1% Triton X-100 (Promega, Madison, WI, United States) for 10 min. The cells were counterstained with 4′6-diamidino-2-phenylindole (DAPI) (Sigma-Aldrich Corp.) and examined under a laser confocal microscope (Leica Microsystems, Wetzlar, Hesse-Darmstadt, Germany).

Müller cells [2] = conditions: 10, 50, 100, and 150 μM, 24 h, primary rat Müller cells, n = 6, compared with control group
Protocol: The viability of Müller cells was determined by the cell counting kit-8 (CCK-8) assay. Briefly, 0.5 × 10^5 cells per well were seeded in 96-well plates and allowed to attach overnight. Then, the culture media were replaced with fresh media containing different concentrations of GILZ-p (0, 10, 50, 100, and 150 μM). After 24 h, 10 μL CCK-8 (Dojindo, Kumamoto, Japan) solution was added to each well, and the plates were incubated for another 2 h. Measurements of optical density were obtained at a wavelength of 450 nm using a spectrophotometer.

[3] = water and culture medium
Müller cells [4] = conditions: 10 μM FITC-labeled GILZ-p, 15 min, serum-starved primary rat Müller cells, flow cytometry
Protocol: Müller cells were cultured on 6-well plates and starved in serum-free DMEM F12 for 24 h.
Müller cells were cultured on 6-well plates and starved in serum-free DMEM F12 for 24 h. […] Click here for additional data file.

[5] = biological target: nuclear factor (NF)-κB p65 (rat (endogenous in primary retinal …, UniProt Q7TQN4 1-550)); test: cell-based or functional assay
Chain of nuclear factor (NF)-κB p65 (rat (Q7TQN4 whole entry): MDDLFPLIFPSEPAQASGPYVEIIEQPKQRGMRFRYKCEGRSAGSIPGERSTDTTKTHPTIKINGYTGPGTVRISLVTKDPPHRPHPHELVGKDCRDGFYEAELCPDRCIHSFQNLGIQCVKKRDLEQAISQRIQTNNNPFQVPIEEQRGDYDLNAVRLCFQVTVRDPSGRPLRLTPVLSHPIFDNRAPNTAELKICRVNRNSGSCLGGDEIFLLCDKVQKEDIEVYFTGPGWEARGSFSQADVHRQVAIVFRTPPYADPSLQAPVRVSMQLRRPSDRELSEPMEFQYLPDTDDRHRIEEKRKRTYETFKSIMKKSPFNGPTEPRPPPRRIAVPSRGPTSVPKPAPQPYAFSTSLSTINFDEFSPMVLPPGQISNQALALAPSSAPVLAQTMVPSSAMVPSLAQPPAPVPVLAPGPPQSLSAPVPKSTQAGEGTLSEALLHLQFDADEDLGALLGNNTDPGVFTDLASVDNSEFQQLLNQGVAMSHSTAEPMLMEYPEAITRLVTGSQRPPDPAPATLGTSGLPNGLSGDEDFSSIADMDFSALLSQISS

## YGRKKRRQRRRKTLASPEQLEKFQSRLSPEEPAPEAPETPEAPGGSAV [GILZ-p]
Müller cells [1]
  intracellular localisation of GILZ-p: aggregated in the cytoplasm
Müller cells [2]
  cytotoxicity (cell viability, CCK-8): no detectable toxicity
[3]
  solubility: water-soluble and fully dissolved in culture medium
Müller cells [4]
  Müller cells associated with GILZ-p: about 7.92%

B1: His-tag-GILZ-p (TAT-GILZ 98-134 peptide with a C-terminal 6x His tag) (peptide)
peptide: YGRKKRRQRRRKTLASPEQLEKFQSRLSPEEPAPEAPETPEAPGGSAV
[5]
  IC50 of GILZ-p (without the His tag) for inhibiting LPS-induced ICAM-1 expression in Müller cells (western blot, 24 h): 7.13 µM
  IC50 of GILZ-p (without the His tag) for inhibiting LPS-induced IL-1β expression in Müller cells (western blot, 24 h): 8.93 µM
  IC50 of GILZ-p (without the His tag) for inhibiting LPS-induced MCP-1 expression in Müller cells (western blot, 24 h): 5.82 µM
  IC50 of GILZ-p (without the His tag) for inhibiting LPS-induced TNFα expression in Müller cells (western blot, 24 h): 8.77 µM
  IC50 of GILZ-p (without the His tag) for inhibiting the LPS-induced downregulation of AQP4 in Müller cells (western blot, 24 h): 2.32 µM
  IC50 of GILZ-p (without the His tag) for inhibiting the LPS-induced upregulation of GFAP in Müller cells (western blot, 24 h): 11.2 µM

Reference: publication PMC5897418, “A Synthesized Glucocorticoid- Induced Leucine Zipper Peptide Inhibits Retinal Müller Cell Gliosis” (Frontiers in Pharmacology, 2018)
